The text below walks through data of article PMC1885967, “The Dynamics of Signal Triggering in a gp130-Receptor Complex” (Structure(London, England:1993), 2007).

First the molecules themselves.
B1: Extracellular region of murine gp130 (residues 1-617) (receptor, UniProt Q00560 23-617, looked up)
chain: QLLEPCGYIYPEFPVVQRGSNFTAICVLKEACLQHYYVNASYIVWKTNHAAVPREQVTVINRTTSSVTFTDVVLPSVQLTCNILSFGQIEQNVYGVTMLSGFPPDKPTNLTCIVNEGKNMLCQWDPGRETYLETNYTLKSEWATEKFPDCQSKHGTSCMVSYMPTYYVNIEVWVEAENALGKVSSESINFDPVDKVKPTPPYNLSVTNSEELSSILKLSWVSSGLGGLLDLKSDIQYRTKDASTWIQVPLEDTMSPRTSFTVQDLKPFTEYVFRIRSIKDSGKGYWSDWSEEASGTTYEDRPSRPPSFWYKTNPSHGQEYRSVRLIWKALPLSEANGKILDYEVILTQSKSVSQTYTVTGTELTVNLTNDRYVASLAARNKVGKSAAAVLTIPSPHVTAAYSVVNLKAFPKDNLLWVEWTPPPKPVSKYILEWCVLSENAPCVEDWQQEDATVNRTHLRGRLLESKCYQITVTPVFATGPGGSESLKAYLKQAAPARGPTVRTKKVGKNEAVLAWDQIPVDDQNGFIRNYSISYRTSVGKEMVVHVDSSHTEYTLSSLSSDTLYMVRMAAYTDEGGKDGPEFTFTTPKFAQGEIE
notes: signal peptide in the construct; gp130, murine, extracellular region (domains D1-D6), residues 1-617, expressed as a secreted soluble protein; Two copies stand in the hexameric IL-11H complex; also called soluble gp130; source: human epithelial kidney 293T cells, transiently transfected, secreted; purified from the media (protein A Sepharose, on-column cleavage with rhinovirus 3C protease); not …

Holding throughout (test): cryo-EM structure; three affinity-purified subunits mixed with IL-11 in molar excess, complex purified by gel filtration (Superdex 200); 5 mM HEPES pH 7.5, 100 mM NaCl, 1 mM DTT, 0.25% β-octylglucopyranoside; 1 mg/ml, vitrified; single-particle reconstruction with C2 symmetry at 30 Å, homology model (IL-6 hexamer plus FNIII repeats) fitted
Data set [1] concerns the molecule itself.
Data set [2] has as its target T1, Extracellular region of murine IL-11 receptor (residues 1-361) (murine, UniProt Q64385 24-361).
T1 construct: signal peptide in the construct; IL-11 receptor, murine, extracellular region, residues 1-361, expressed as a secreted soluble protein; Two copies stand in the hexameric IL-11H complex; also called soluble IL-11R; source: Drosophila S2 cells, stably transfected, secreted; purified from the media (protein A Sepharose, on-column cleavage with rhinovirus 3C protease); not shown: Fc, C-terminal, …
T1 sequence (looked up): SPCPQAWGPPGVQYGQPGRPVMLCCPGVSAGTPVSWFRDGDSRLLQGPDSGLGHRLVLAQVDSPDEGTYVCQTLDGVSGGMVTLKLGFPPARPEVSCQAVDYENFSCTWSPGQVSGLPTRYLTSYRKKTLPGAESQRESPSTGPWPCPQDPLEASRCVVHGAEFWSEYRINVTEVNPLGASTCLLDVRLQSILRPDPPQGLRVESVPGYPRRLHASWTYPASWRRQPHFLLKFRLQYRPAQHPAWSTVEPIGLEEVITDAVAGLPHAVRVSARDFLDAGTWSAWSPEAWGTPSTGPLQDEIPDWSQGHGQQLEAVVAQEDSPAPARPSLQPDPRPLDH
To be noted: both partners purified.

Data set [3] deals with B1. Particulars: both partners purified.

In the case of B1, the binding result in data set [1] was “binds”.

B2: Murine Interleukin 11 (residues 22-199) (ligand, UniProt P47873 22-199, looked up)
chain: PGPPAGSPRVSSDPRADLDSAVLLTRSLLADTRQLAAQMRDKFPADGDHSLDSLPTLAMSAGTLGSLQLPGVLTRLRVDLMSYLRHVQWLRRAGGPSLKTLEPELGALQARLERLLRRLQLLMSRLALPQAAPDQPVIPLGPPASAWGSIRAAHAILGGLHLTLDWAVRGLLLLKTRL
notes: Interleukin 11, murine, residues 22-199, subcloned into pET15b; Two copies stand in the hexameric IL-11H complex; also called IL-11
In the case of B2, the binding result in data set [2] and in data set [3] was “binds” in each case.
